# From patent US20210332382A1
# Molecular target: Adenovirus delta 24, serotype 5 virus with a modified knob from serotype 3 adenovirus (AdV 5/3), whole virus particles
# Test: MP-SPR, peptide over AdV on APTES sensor, water, Min (after flush, no peptide in solution)
Binder,Adsorbed Peptides SPR response,Mass Peptide [ng],Mass/Area Peptide [ng/cm^2],Moles peptide [mol]
"KKKKKKVFGIELMEVDPIGHLYIFAT [PEP1455 = KKKKKK-… (6K-MAGE-A3 peptide, MAGE-A3 161-180 with a 6-lysine tail at the amino terminus)]",0.0674 Δ°,0.32,40.4,1.05e-13
"KKKKKKKKKVFGIELMEVDPIGHLYIFAT [PEP1456 = …-… (9K-MAGE-A3 peptide, MAGE-A3 161-180 with a 9-lysine tail at the amino terminus)]",0.029 Δ°,0.14,17.4,4e-14
KKKKKKYLAMPFATPMEAELARRSLA,0.0184 Δ°,0.09,11,2.88e-14

# Molecular target: Adenovirus delta 24, serotype 5 virus with a modified knob from serotype 3 adenovirus (AdV 5/3), whole virus particles
# Test: MP-SPR, peptide over AdV on APTES sensor, water, Max (100 µM peptide in solution)
Binder,Adsorbed Peptides SPR response,Mass Peptide [ng],Mass/Area Peptide [ng/cm^2],Moles peptide [mol]
"KKKKKKVFGIELMEVDPIGHLYIFAT [PEP1455 = KKKKKK-… (6K-MAGE-A3 peptide, MAGE-A3 161-180 with a 6-lysine tail at the amino terminus)]",0.153 Δ°,0.72,91.9,2.38e-13
"KKKKKKKKKVFGIELMEVDPIGHLYIFAT [PEP1456 = …-… (9K-MAGE-A3 peptide, MAGE-A3 161-180 with a 9-lysine tail at the amino terminus)]",0.13 Δ°,0.61,78.2,1.8e-13
KKKKKKYLAMPFATPMEAELARRSLA,0.0386 Δ°,0.18,23.2,6.05e-14

# Molecular target: Adenovirus delta 24, serotype 5 virus with a modified knob from serotype 3 adenovirus (AdV 5/3), whole virus particles
# Test: MP-SPR, peptide over AdV on APTES sensor, A195 buffer, Min (after flush, no peptide in solution)
Binder,Adsorbed Peptides SPR response,Mass Peptide [ng],Mass/Area Peptide [ng/cm^2],Moles peptide [mol]
"KKKKKKVFGIELMEVDPIGHLYIFAT [PEP1455 = KKKKKK-… (6K-MAGE-A3 peptide, MAGE-A3 161-180 with a 6-lysine tail at the amino terminus)]",0.0174 Δ°,0.08,10.4,2.7e-14
"KKKKKKKKKVFGIELMEVDPIGHLYIFAT [PEP1456 = …-… (9K-MAGE-A3 peptide, MAGE-A3 161-180 with a 9-lysine tail at the amino terminus)]",0.276 Δ°,1.3,166,3.81e-13
KKKKKKYLAMPFATPMEAELARRSLA,0.012 Δ°,0.06,7.2,1.88e-14

# Molecular target: Adenovirus delta 24, serotype 5 virus with a modified knob from serotype 3 adenovirus (AdV 5/3), whole virus particles
# Test: MP-SPR, peptide over AdV on APTES sensor, A195 buffer, Max (100 µM peptide in solution)
Binder,Adsorbed Peptides SPR response,Mass Peptide [ng],Mass/Area Peptide [ng/cm^2],Moles peptide [mol]
"KKKKKKVFGIELMEVDPIGHLYIFAT [PEP1455 = KKKKKK-… (6K-MAGE-A3 peptide, MAGE-A3 161-180 with a 6-lysine tail at the amino terminus)]",0.078 Δ°,0.37,46.8,1.21e-13
"KKKKKKKKKVFGIELMEVDPIGHLYIFAT [PEP1456 = …-… (9K-MAGE-A3 peptide, MAGE-A3 161-180 with a 9-lysine tail at the amino terminus)]",0.371 Δ°,1.75,223,5.12e-13
KKKKKKYLAMPFATPMEAELARRSLA,0.044 Δ°,0.21,26.4,6.89e-14
